# According to IntAct's records for PubMed 19264842:
# Biological target: T1, plcg1_human PLCG1 (UniProt P19174)
# T1 sequence: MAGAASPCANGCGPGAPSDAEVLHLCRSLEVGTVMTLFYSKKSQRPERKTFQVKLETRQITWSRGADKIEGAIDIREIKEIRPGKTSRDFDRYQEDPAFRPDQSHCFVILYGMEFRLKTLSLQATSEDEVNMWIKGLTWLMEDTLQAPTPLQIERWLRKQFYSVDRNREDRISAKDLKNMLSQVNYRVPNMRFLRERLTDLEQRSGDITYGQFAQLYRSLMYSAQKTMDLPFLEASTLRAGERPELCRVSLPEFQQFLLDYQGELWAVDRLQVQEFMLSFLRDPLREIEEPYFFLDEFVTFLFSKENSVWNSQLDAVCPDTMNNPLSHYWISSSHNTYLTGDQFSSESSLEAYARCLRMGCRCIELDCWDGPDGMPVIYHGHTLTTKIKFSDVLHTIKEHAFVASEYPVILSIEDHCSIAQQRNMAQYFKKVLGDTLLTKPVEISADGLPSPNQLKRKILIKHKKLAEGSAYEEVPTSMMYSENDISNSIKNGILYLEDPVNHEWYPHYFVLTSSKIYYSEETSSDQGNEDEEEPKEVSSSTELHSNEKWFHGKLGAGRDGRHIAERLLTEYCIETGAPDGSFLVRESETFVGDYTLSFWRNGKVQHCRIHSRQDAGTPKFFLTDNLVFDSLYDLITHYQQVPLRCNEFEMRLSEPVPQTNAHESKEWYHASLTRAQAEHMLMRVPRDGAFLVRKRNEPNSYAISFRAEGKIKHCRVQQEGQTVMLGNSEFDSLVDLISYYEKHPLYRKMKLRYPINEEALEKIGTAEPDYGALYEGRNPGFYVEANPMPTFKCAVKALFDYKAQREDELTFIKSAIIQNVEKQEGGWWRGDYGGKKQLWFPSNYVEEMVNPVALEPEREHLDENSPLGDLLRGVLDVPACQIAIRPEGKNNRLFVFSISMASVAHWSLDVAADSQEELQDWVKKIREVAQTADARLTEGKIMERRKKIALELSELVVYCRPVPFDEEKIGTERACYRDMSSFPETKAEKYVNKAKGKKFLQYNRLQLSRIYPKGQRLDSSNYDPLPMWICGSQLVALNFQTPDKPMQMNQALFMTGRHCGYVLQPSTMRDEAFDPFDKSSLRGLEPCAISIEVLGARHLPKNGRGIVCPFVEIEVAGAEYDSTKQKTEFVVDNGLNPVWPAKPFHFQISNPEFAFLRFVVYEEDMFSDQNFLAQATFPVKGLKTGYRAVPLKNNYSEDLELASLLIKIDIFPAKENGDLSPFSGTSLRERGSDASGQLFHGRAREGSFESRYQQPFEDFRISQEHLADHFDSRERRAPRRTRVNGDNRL
substance,measurement,value
Ras-related C3 botulinum toxin substrate 1 (Homo sapiens) (from UniProt P63000) P106A,effect of a mutation on the interaction,disrupting interaction
Ras-related C3 botulinum toxin substrate 1 (Homo sapiens) (from UniProt P63000) P109A,effect of a mutation on the interaction,disrupting interaction
